Data taken from patent US20210009673A1, “METHODS FOR REGULATING BREAST CANCERS” (priority 2018, published 2021).

Assays:
β-catenin [1] = experiment: tyrosine phosphorylation of β-catenin in PTN-stimulated U87MG cells; format: cell-based, human; conditions: control U87MG cells; 50 ng PTN/ml
Protocol: FIG. 1: FIG. 1 illustrates in (A) PTN stimulation of tyrosine phosphorylation of β-catenin in cells that express RPTPβ/ζ and ALK. COS7 cells transiently expressing ALK and RPTPβ/ζ were stimulated with 10 ng PTN/ml. Cell lysates were prepared and used to immunoprecipitate β-catenin. The immunoprecipitates were analyzed in Western blots probed with anti-phosphotyrosine antibodies. Lane 1, cells transfected with ALK that were not stimulated with PTN. Lane 2, cells transfected with ALK stimulated with PTN. Lane 3, cells transfected with empty vector not stimulated with PTN. Lane 4, cells transfected with empty vector stimulated with PTN. […] The immunoprecipitates were analyzed in Western blots probed with anti-phosphotyrosine antibodies. […] Cell lysates were used to immunoprecipitate β-catenin and the immunoprecipitates were analyzed in Western blots probed with anti-phospho-tyrosine antibodies and reprobed with anti-β-catenin antibodies. […] MCF-7 cells that stably express EGFR/RPTPβ/ζ not transfected with ALK were analyzed as above. […] Lysates of MCF-7 cells and lysates of MCF-7 cells stimulated with EGF were used to immunoprecipitate β-catenin and the immunoprecipitates were analyzed in Western blots probed with anti-phospho-tyrosine antibodies and separately with anti-β-catenin antibodies. […]

β-catenin [2] = experiment: β-catenin import into nuclei of HUVS cells (Western blot of nuclear extracts); format: cell-based, human
Protocol: FIG. 13: FIG. 13 illustrates: (A) human umbilical vein stromal cells not stimulated or stimulated for 60 minutes with 1, 10, 25, 50, 100 and 200 ng/ml of PTN were used to isolate their nuclei and prepare lysates that were analyzed in Western blots probed with anti-β-catenin antibodies (upper panel) and anti-Orc-2 antibodies (lower panel). In (B), human umbilical vein stromal cells not stimulated or stimulated with 100 ng/ml of PTN for 5, 15, 30, 60 minutes were used to isolate their nuclei and prepare lysates that were analyzed in Western blots probed with anti-β-catenin antibodies (upper panel) and anti-Orc-2 antibodies (lower panel).
Cells at confluence were washed with PBS ×2 and incubated for 10 minutes in a lysis buffer containing 100 mM HEPES pH 7.9, 100 mM KCl, […], 1 mM DTT, Complete EDTA-free Protease Inhibitor Cocktail (Roche, Indianapolis, Ind.) and 0.04% IGEPAL (Sigma-Aldrich Co. Ltd, Poole, Dorset, UK). […] Samples were centrifuged and the supernatant nuclear extract was collected and analyzed in Western-blots as described below. […] It was detected with anti-Orc2 antibodies; tubulin was used to mark cytosolic fractions and detected with anti-tubulin antibodies. Samples of the nuclear fractions were used only if tubulin was not detected. […]

B1: pleiotrophin (protein, UniProt P21246 33-168, looked up)
Pleiotrophin: GKKEKPEKKVKKSDCGEWQWSVCVPTSGDCGLGTREGTRTGAECKQTMKTQRCKIPCNWKKQFGAECKYQFQAWGECDLNTALKTRTGSLKRALHNAECQKTVTISKPCGKLTKPKPQAESKKKKKEGKKQEKMLD
phosphorylation of β-catenin (β-catenin [1]): sharply increased | β-catenin in nuclei (β-catenin [2]; 1-200 ng/ml PTN, 5-60 minutes): concentration and time-dependent increase | PTN concentration at which increase in nuclear β-catenin was seen (β-catenin [2]; 60 minutes): 10 ng/mL
